From patent US20260232732A1 (FUNDACI INSTITUT DE RECERCA CONTRA LA LEUC MIA JOSEP …, published 2026)

T1: naked peptide SESTSSMEDY (human)
T1 peptide: SESTSSMEDY

T2: naked peptide SMEDYVNFNF (human)
T2 peptide: SMEDYVNFNF

T3: naked peptide 1b MEDYVNFNFTDFYCEKNNVRQFAS (human)
T3 construct: also called region amino acids 25 to 48
T3 peptide: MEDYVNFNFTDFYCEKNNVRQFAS

T4: naked peptide 1a MTPTDFTSPIPNMADDYGSESTSS (human)
T4 construct: also called region 1-24
T4 peptide: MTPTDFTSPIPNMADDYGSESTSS

T5: Pep1-48, N-terminal domain 1 of CCR9, amino acids 1 to 48 (human)
T5 construct: Chemically synthesized (Genscript), purity >75%; also called CCR9 N-terminal 1-48 peptide
T5 peptide: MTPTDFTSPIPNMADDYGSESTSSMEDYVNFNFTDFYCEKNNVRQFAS

T6: naked peptide TSPIPNMADD (human)
T6 peptide: TSPIPNMADD

T7: naked peptide KNNVRQFAS (human)
T7 peptide: KNNVRQFAS

T8: naked peptide MADDYGSEST (human)
T8 peptide: MADDYGSEST

T9: naked peptide MEDYVNFNFT (human)
T9 peptide: MEDYVNFNFT

T10: naked peptide TDFYCEKNNV (human)
T10 peptide: TDFYCEKNNV

T11: naked peptide MTPTDFTSPI (human)
T11 peptide: MTPTDFTSPI

T12: naked peptide TDFTSPIPNM (human)
T12 peptide: TDFTSPIPNM

T13: naked peptide YVNFNFTDFY (human)
T13 peptide: YVNFNFTDFY

T14: naked peptide DYGSESTSSM (human)
T14 peptide: DYGSESTSSM

T15: naked peptide YCEKNNVRQF (human)
T15 peptide: YCEKNNVRQF

T16: naked peptide SSMEDYVNFN (human)
T16 peptide: SSMEDYVNFN

T17: naked peptide TSSMEDYVNF (human)
T17 peptide: TSSMEDYVNF

T18: naked peptide FNFTDFYCEK (human)
T18 peptide: FNFTDFYCEK

T19: naked peptide IPNMADDYGS (human)
T19 peptide: IPNMADDYGS


How the values were obtained:
[1] = target: T1, naked peptide SESTSSMEDY; test: ELISA naked peptide; scFv 1 ug/mL; repII
Experimental: (§1) The peptides were synthesized naked or with a N-terminal Biotin modification with a purity of >98%. All four scFvs were verified by ELISA that can be detected with anti-His antibodies. ELISA was performed for scFv-peptide binding validation. Briefly, naked peptides were coated (50 μg/mL) in 0.58M carbonate-bicarbonate buffer pH9.5, 100 μL/well, 4° C. O/N. Then after blocking (3% BSA-PBS, 300 μL/well 37° C. 1.5 h) and washing (PBS+Tween-20 0.05% v/v (0.05% PBST), wells were incubated with each purified scFv antibody at concentration of 1 μg/mL in PBS at 37° C. 1 h. After washing (0.05% PBST), wells were incubated with secondary antibodies (goat anti-His IgG-HRP) in PBS, 37° C., 30 min. After washing, and incubation with TMB substrate, reactions were stopped with 2M HCl and reading was quantified at OD450.
(§2) Then a library of overlapping peptides were designed and constructed separately to produce 16 different peptides, covering full antigen sequence of total 48 aa. Peptide size was 10aa, with 7aa overlapping and ELISA screening of scFv against each peptide was performed in duplicate. Screening was performed using naked peptides in a standard plate or biotinylated peptides using avidin-plates.

[2] = target: T2, naked peptide SMEDYVNFNF; test: ELISA naked peptide; scFv 1 ug/mL; repII
Experimental: as §1, §2

[3] = target: T3, naked peptide 1b …; test: ELISA naked 24-mer; repI
[4] = target: T4, naked peptide 1a …; test: ELISA naked 24-mer; repI
[5] = target: T5, Pep1-48, N-terminal domain 1 of CCR9, …; test: BLI, scFv on NTA biosensor, 1:1 global fit
Experimental: The affinity between the CCR9-N-terminal domain 1 of CCR9 and the different scFvs was determined by Bio-Layer Interferometry (BLI), a technique that allows quantitative and qualitative measurement of biomolecular interactions in real-time. Briefly, scFv were immobilized onto NTA Biosensor (Sartorius) and quantification was performed in an Octet RED384 (Sartorius). scFv were dissolved in PBS (150 mM NaCl, 38 mM Na2HPO4, 12 mM NaH2PO4, pH 7.2) and a buffer containing 0.03% Tween-20 in PBS, pH 7.2 was used for baseline steps.

[6] = target: T3, naked peptide 1b …; test: ELISA naked 24-mer; repII
[7] = target: T4, naked peptide 1a …; test: ELISA naked 24-mer; repII
[8] = target: T6, naked peptide TSPIPNMADD; test: ELISA naked peptide; scFv 1 ug/mL; repI
Experimental: as §1, §2

[9] = target: T1, naked peptide SESTSSMEDY; test: ELISA naked peptide; scFv 1 ug/mL; repI
Experimental: as §1, §2

[10] = target: T7, naked peptide KNNVRQFAS; test: ELISA naked peptide; scFv 1 ug/mL; repI
Experimental: as §1, §2

[11] = target: T8, naked peptide MADDYGSEST; test: ELISA naked peptide; scFv 1 ug/mL; repI
Experimental: as §1, §2

[12] = target: T9, naked peptide MEDYVNFNFT; test: ELISA naked peptide; scFv 1 ug/mL; repI
Experimental: as §1, §2

[13] = target: T2, naked peptide SMEDYVNFNF; test: ELISA naked peptide; scFv 1 ug/mL; repI
Experimental: as §1, §2

[14] = target: T10, naked peptide TDFYCEKNNV; test: ELISA naked peptide; scFv 1 ug/mL; repI
Experimental: as §1, §2

[15] = target: T11, naked peptide MTPTDFTSPI; test: ELISA naked peptide; scFv 1 ug/mL; repI
Experimental: as §1, §2

[16] = target: T12, naked peptide TDFTSPIPNM; test: ELISA naked peptide; scFv 1 ug/mL; repI
Experimental: as §1, §2

[17] = target: T13, naked peptide YVNFNFTDFY; test: ELISA naked peptide; scFv 1 ug/mL; repI
Experimental: as §1, §2

[18] = target: T14, naked peptide DYGSESTSSM; test: ELISA naked peptide; scFv 1 ug/mL; repI
Experimental: as §1, §2

[19] = target: T15, naked peptide YCEKNNVRQF; test: ELISA naked peptide; scFv 1 ug/mL; repI
Experimental: as §1, §2

[20] = target: T16, naked peptide SSMEDYVNFN; test: ELISA naked peptide; scFv 1 ug/mL; repI
Experimental: as §1, §2

[21] = target: T17, naked peptide TSSMEDYVNF; test: ELISA naked peptide; scFv 1 ug/mL; repI
Experimental: as §1, §2

[22] = target: T18, naked peptide FNFTDFYCEK; test: ELISA naked peptide; scFv 1 ug/mL; repI
Experimental: as §1, §2

[23] = target: T19, naked peptide IPNMADDYGS; test: ELISA naked peptide; scFv 1 ug/mL; repI
Experimental: as §1, §2

Binder	OD450 [1]	OD450 [2]	OD450 [3]	OD450 [4]	OD450 [6]	OD450 [7]	OD450 [8]	OD450 [9]	OD450 [10]	OD450 [11]	OD450 [12]	OD450 [13]	OD450 [14]	OD450 [15]	OD450 [16]	OD450 [17]	OD450 [18]	OD450 [19]	OD450 [20]	OD450 [21]	further results
Comparative antibody 1 (Comp-1) scFv, SEQ ID NO: 10 from WO2023/037125 A1, His-tagged (scFv) scFv: QVQLKESGPGLVQPSQTLSLTCTVSGFSVASYDMHWVRLPPGKGLEWMGIIWANGNTHYNSGLKSRLSISRDTSKSQVFLKMNSLQTEDTAIYFCTRGGFAYWGQGTLVTVSSGGGGSGGGGSGGGGSGGGGSDVVMTQTPVSLSVSLGGQVSISCRSSQSLVHNNGNTYLSWYLQKPGQSPQLLIYKVSNRFSGVSDRFSGSGSGTDFTLKISRVEPDDLGVYYCGQGTQYPTFGGGTKLELKHHHHHH	0.04 OD	0.02 OD	0.09 OD	0.08 OD	0.06 OD	0.1 OD	0.05 OD	0.03 OD	0.02 OD	0.02 OD	0.05 OD	0.02 OD	0.03 OD	0.05 OD	0.03 OD	0.05 OD	0.02 OD	0.02 OD	0.07 OD	0.03 OD	OD450 [22]: 0.02 OD; OD450 [23]: 0.01 OD
CCR9_HUM2 scFv (humanized anti-CCR9 scFv, SEQ ID NO: 17 with C-terminal 6xHis tag) (scFv) scFv: QVQLVQSGAEVKKPGASVKVSCTASGYSFTDYIIYWVKQAHGQSLEWMGYIDPNNYNTRYSQKFQGKVTITVDKSSTSAYMELNSLTSDDTAVYYCARDVYWGQGTTVTVSSGGGGSGGGGSGGGGSGGGGSDVVMTQTPLSLSVTPGQPASISCRSSQSLVHSNGKTYLQWYLQKPGQSPKLLIYKVSNRFSGVPDRFSGSGSGTDFTLKISRVEAEDVGVYFCAQSTHVWTFGGGTKVEIKRAHHHHHH	0.03 OD	1.48 OD	2.22 OD	0.05 OD	2.24 OD	0.08 OD	0.03 OD	0.03 OD	0.03 OD	0.03 OD	0.84 OD	1.54 OD	0.05 OD	0.04 OD	0.05 OD	0.03 OD	0.02 OD	0.04 OD	0.9 OD	0.03 OD	Kd [5]: 6.25 nM; koff [5]: 0.00168 s⁻¹; kon [5]: 268000 M⁻¹ s⁻¹; OD450 [22]: 0.04 OD; OD450 [23]: 0.02 OD

The next lines start with results.

OD450 [1]	OD450 [2]	OD450 [3]	OD450 [4]	OD450 [6]	OD450 [7]	OD450 [8]	OD450 [9]	OD450 [10]	OD450 [11]	OD450 [12]	OD450 [13]	OD450 [14]	OD450 [15]	OD450 [16]	OD450 [17]	OD450 [18]	OD450 [19]	OD450 [20]	OD450 [21]	Binder	further results
0.02 OD	0.03 OD	1.97 OD	0.09 OD	2.01 OD	0.08 OD	0.02 OD	0.03 OD	0.04 OD	0.02 OD	0.04 OD	0.03 OD	0.03 OD	0.03 OD	0.04 OD	0.02 OD	0.02 OD	0.05 OD	0.1 OD	0.03 OD	Comparative antibody 2 (Comp-2) scFv, 243LO326 (VH SEQ ID NO: 51 and VL SEQ ID NO: 52 of WO 2022/195028 A2), His-tagged (scFv) scFv: QVQLVQSGAEVKKPGASVKVSCKASGYTFTSYWMHWVRQAPGQGLEWIGVIYPGNSDTRYNQKFKGRVTITRDTSASTAYMELSSLRSEDTAVYYCTRDYYSNYVYYYAMDYWGQGTTVTVSSGGGGSGGGGSGGGGSGGGGSDIVMTQTPLSLPVTPGEPASISCRSSQSLVHPNRNTYLHWYLQKPGQSPQLLIYKVSNRFSGVPDRFSGSGSGTDFTLKISRVEAEDVGVYYCSQSTHVPWTFGQGTKLEIKHHHHHH	Kd [5]: 61.4 nM; koff [5]: 0.0152 s⁻¹; kon [5]: 248000 M⁻¹ s⁻¹; OD450 [22]: 0.03 OD; OD450 [23]: 0.02 OD
0.04 OD	0.07 OD	0.11 OD	1.38 OD	0.09 OD	1.35 OD	0.02 OD	0.03 OD	0.05 OD	0.02 OD	0.05 OD	0.05 OD	0.03 OD	0.02 OD	0.07 OD	0.03 OD	0.03 OD	0.04 OD	0.09 OD	0.04 OD	Comparative antibody 3 (Comp-3) scFv, SR_92R (Somovilla-Crespo et al. 2018), His-tagged (scFv) scFv: EVKLEESGGGLVQPGGSMKLSCVASGFTFNKFWMNWVRQSPEKGLEWVAEIRLKSNNYATHYAESVKGRFTISRDDSKSSVYLQMNNLRAEDTGIYYCASDGWFAYWGQGTLVTVSAGGGGSGGGGSGGGGSGGGGSDVVMTQTPLSLPVSLGDQASISCRSSQSLVHSNGNTYLNWCLQRPGQSPKSLIYKVSNRFSGVPDRFSGSGSGTDFTLKISRVEAEDLGVYFCSQSTHFPRTFGGGTKLEIKRHHHHHH	Kd [5]: 33.1 nM; koff [5]: 0.012 s⁻¹; kon [5]: 364000 M⁻¹ s⁻¹; OD450 [22]: 0.05 OD; OD450 [23]: 0.02 OD
